The source of these data is patent US20220298231A1 (AC IMMUNE, published 2022).

Experiment [1] addresses human full-length alpha-synuclein (human, UniProt P37840 1-140). The experiment can be described thus: SPR, 100 nM monomer, relative to chimeric. (In general: In SPR one partner is held on a chip, and binding of the other changes the refractive index at the surface.)
Protocol: (§1) Flow channels (Fc) 1-8 were activated with a fresh solution of EDC/NHS (Amine Coupling Kit, 1:1 ratio of both reagents, GE Healthcare Life Sciences, BR100050). […] The chip was deactivated by 1 M ethanolamine-HCl (GE Healthcare Life Sciences, BR100050) at a flow rate of 10 μL/min for 420 s.
(§2) A human IgG1 isotype control diluted in running buffer 1×HBS-EP+ (GE Healthcare Life Sciences, BR100669) was captured onto Fc1 via anti-human Fc IgG at a flow rate of 10 μL/min. […] 10 mM glycine pH 1.5 as regeneration buffer was injected following every dissociation phase.
(§3) The data for reference channel Fc1 and buffer channel were subtracted to generate the sensorgrams. The experimental data was fitted by 1:1 binding model or heterogeneous ligand model.
Another experiment addresses alpha-synuclein fibrils (Homo sapiens (Human), UniProt P37840 1-140). The experiment can be described thus: SPR, 450 nM aggregates, relative to chimeric.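 Further: surface plasmon resonance with anti-human Fc capture, human IgG1 isotype control channel and buffer run subtracted, dissociation rates fitted by 1:1 or heterogeneous ligand binding model.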

Protocol for alpha-synuclein fibrils: as §1, §2, §3

B1: hACI-7067-1101C8-Ab2_H2L1 (antibody, V domains shown)
VH: EVQLVESGGGLVQPGGSLKLSCAASGFSFNIYAMNWVRQAPGKGLEWVGRIRSKSNAYATYYAASVKGRFTISRDDSKNTLYLQMNNLKTEDTAVYYCVRVGLRFYAMDYWGQGTLVTVSS
VL: DVVMTQSPLSLPVTLGQPASISCRSSQSIVHSNANTYLEWYQQRPGQSPRLLIYKVSNRFSGVPDRFSGSGSGTDFTLKISRVEAEDLGVYYCFQGSQGPLTFGQGTKLEIK
notes: VH on human IgG1 constant, VL on human kappa constant
With B1, the Relative koff in experiment [1] is 2; in the experiment with alpha-synuclein fibrils, 0.5.

B2: hACI-7067-1101C8-Ab2_H1L4 (antibody, V domains shown)
VH: EVQLVESGGGLVQPGGSLKLSCAASGFSFNIYAMNWVRQAPGKGLEWVARIRSKSNAYATYYAASVKGRFTISRDDSKNTLYLQMNNLKTEDTAVYYCVRVGLRFYAMDYWGQGTLVTVSS
VL: DVVMTQSPLSLPVTLGQPASISCRSSQSLVHSNANTYLEWFQQRPGQSPRLLIYKVSNRFSGVPDRFSGSGSGTDFTLKISRVEAEDLGVYYCFQGSQGPLTFGQGTKLEIK
notes: as for B1
Regarding B2, the Relative koff in experiment [1] came out at 0.1; with alpha-synuclein fibrils it was 0.3.

B3: hACI-7067-1101C8-Ab2_H2L3 (antibody, V domains shown)
VH: EVQLVESGGGLVQPGGSLKLSCAASGFSFNIYAMNWVRQAPGKGLEWVGRIRSKSNAYATYYAASVKGRFTISRDDSKNTLYLQMNNLKTEDTAVYYCVRVGLRFYAMDYWGQGTLVTVSS
VL: DVVMTQSPLSLPVTLGQPASISCRSSQSIVHSNANTYLEWFQQRPGQSPRLLIYKVSNRFSGVPDRFSGSGSGTDFTLKISRVEAEDLGVYYCFQGSQGPLTFGQGTKLEIK
notes: as for B1
As to B3, the values for the Relative koff (in experiment [1]; with alpha-synuclein fibrils) were 0.2 and 0.3, respectively.

B4: hACI-7067-1101C8-Ab2_H7L1 (antibody, V domains shown)
VH: EVQLVESGGGLVQPGGSLKLSCAASGFSFNIYAMNWVRQAPGKGLEWVARIRSKSNAYATYYAASVKGRFTISRDDSKNTLYLQMNNLKTEDTAVYYCVRVGLRFYATDYWGQGTLVTVSS
VL: DVVMTQSPLSLPVTLGQPASISCRSSQSIVHSNANTYLEWYQQRPGQSPRLLIYKVSNRFSGVPDRFSGSGSGTDFTLKISRVEAEDLGVYYCFQGSQGPLTFGQGTKLEIK
notes: as for B1
As for B4, the Relative koff with alpha-synuclein fibrils worked out at 1420.

B5: hACI-7067-1101C8-Ab2_H3L4 (antibody, V domains shown)
VH: EVQLVESGGGLVQPGGSLKLSCAASGFSFNIYAMNWVRQAPGKGLEWVGRIRSKSNAYATYYAASVKGRFTISRDDSKNTAYLQMNNLKTEDTAVYYCVRVGLRFYAMDYWGQGTLVTVSS
VL: DVVMTQSPLSLPVTLGQPASISCRSSQSLVHSNANTYLEWFQQRPGQSPRLLIYKVSNRFSGVPDRFSGSGSGTDFTLKISRVEAEDLGVYYCFQGSQGPLTFGQGTKLEIK
notes: as for B1
For the molecule B5, the results for the Relative koff (in experiment [1]; with alpha-synuclein fibrils) were 0.1 and 0.3, respectively.

B6: hACI-7067-1101C8-Ab2_H3L1 (antibody, V domains shown)
VH: EVQLVESGGGLVQPGGSLKLSCAASGFSFNIYAMNWVRQAPGKGLEWVGRIRSKSNAYATYYAASVKGRFTISRDDSKNTAYLQMNNLKTEDTAVYYCVRVGLRFYAMDYWGQGTLVTVSS
VL: DVVMTQSPLSLPVTLGQPASISCRSSQSIVHSNANTYLEWYQQRPGQSPRLLIYKVSNRFSGVPDRFSGSGSGTDFTLKISRVEAEDLGVYYCFQGSQGPLTFGQGTKLEIK
notes: as for B1
Consider B6, for which the Relative koff in experiment [1] amounted to 1; in the experiment with alpha-synuclein fibrils, 213.

B7: hACI-7067-1101C8-Ab2_H2L4 (antibody, V domains shown)
VH: EVQLVESGGGLVQPGGSLKLSCAASGFSFNIYAMNWVRQAPGKGLEWVGRIRSKSNAYATYYAASVKGRFTISRDDSKNTLYLQMNNLKTEDTAVYYCVRVGLRFYAMDYWGQGTLVTVSS
VL: DVVMTQSPLSLPVTLGQPASISCRSSQSLVHSNANTYLEWFQQRPGQSPRLLIYKVSNRFSGVPDRFSGSGSGTDFTLKISRVEAEDLGVYYCFQGSQGPLTFGQGTKLEIK
notes: as for B1
B7: the Relative koff in experiment [1] was 0.1; with alpha-synuclein fibrils it was 0.2.

B8: hACI-7067-1101C8-Ab2_H4L4 (antibody, V domains shown)
VH: EVQLVESGGGLVQPGGSLKLSCAASGFTFNIYAMNWVRQAPGKGLEWVGRIRSKSNAYATYYAASVKGRFTISRDDSKNTLYLQMNNLKTEDTAVYYCVRVGLRFYAMDYWGQGTLVTVSS
VL: DVVMTQSPLSLPVTLGQPASISCRSSQSLVHSNANTYLEWFQQRPGQSPRLLIYKVSNRFSGVPDRFSGSGSGTDFTLKISRVEAEDLGVYYCFQGSQGPLTFGQGTKLEIK
notes: as for B1
Take B8: the Relative koff in experiment [1] was 0.1; in the experiment with alpha-synuclein fibrils it was 0.3.

B9: hACI-7067-1101C8-Ab2_H4L3 (antibody, V domains shown)
VH: EVQLVESGGGLVQPGGSLKLSCAASGFTFNIYAMNWVRQAPGKGLEWVGRIRSKSNAYATYYAASVKGRFTISRDDSKNTLYLQMNNLKTEDTAVYYCVRVGLRFYAMDYWGQGTLVTVSS
VL: DVVMTQSPLSLPVTLGQPASISCRSSQSIVHSNANTYLEWFQQRPGQSPRLLIYKVSNRFSGVPDRFSGSGSGTDFTLKISRVEAEDLGVYYCFQGSQGPLTFGQGTKLEIK
notes: as for B1
With B9, the Relative koff in experiment [1] came to 0.2; with alpha-synuclein fibrils, 0.3.

B10: hACI-7067-1101C8-Ab2_H5L3 (antibody, V domains shown)
VH: EVQLVESGGGLVQPGGSLKLSCAASGFSFNIYAMNWVRQAPGKGLEWVGRIRSKSNAYATYYAASVKGRFTISRDDSKNTLYLQMNNLKTEDTAVYYCTRVGLRFYAMDYWGQGTLVTVSS
VL: DVVMTQSPLSLPVTLGQPASISCRSSQSIVHSNANTYLEWFQQRPGQSPRLLIYKVSNRFSGVPDRFSGSGSGTDFTLKISRVEAEDLGVYYCFQGSQGPLTFGQGTKLEIK
notes: as for B1
In the case of B10, the Relative koff (in experiment [1]; with alpha-synuclein fibrils) was 0.2 each time.

B11: hACI-7067-1101C8-Ab2_H2L2 (antibody, V domains shown)
VH: EVQLVESGGGLVQPGGSLKLSCAASGFSFNIYAMNWVRQAPGKGLEWVGRIRSKSNAYATYYAASVKGRFTISRDDSKNTLYLQMNNLKTEDTAVYYCVRVGLRFYAMDYWGQGTLVTVSS
VL: DVVMTQSPLSLPVTLGQPASISCRSSQSLVHSNANTYLEWYQQRPGQSPRLLIYKVSNRFSGVPDRFSGSGSGTDFTLKISRVEAEDLGVYYCFQGSQGPLTFGQGTKLEIK
notes: as for B1
B11: the Relative koff in experiment [1] was 1.1; with alpha-synuclein fibrils it was 1.9.

B12: hACI-7067-1101C8-Ab2_H1L2 (antibody, V domains shown)
VH: EVQLVESGGGLVQPGGSLKLSCAASGFSFNIYAMNWVRQAPGKGLEWVARIRSKSNAYATYYAASVKGRFTISRDDSKNTLYLQMNNLKTEDTAVYYCVRVGLRFYAMDYWGQGTLVTVSS
VL: DVVMTQSPLSLPVTLGQPASISCRSSQSLVHSNANTYLEWYQQRPGQSPRLLIYKVSNRFSGVPDRFSGSGSGTDFTLKISRVEAEDLGVYYCFQGSQGPLTFGQGTKLEIK
notes: as for B1
Take B12: the Relative koff in experiment [1] is 0.6; in the experiment with alpha-synuclein fibrils it was 131.

B13: hACI-7067-1101C8-Ab2_H3L3 (antibody, V domains shown)
VH: EVQLVESGGGLVQPGGSLKLSCAASGFSFNIYAMNWVRQAPGKGLEWVGRIRSKSNAYATYYAASVKGRFTISRDDSKNTAYLQMNNLKTEDTAVYYCVRVGLRFYAMDYWGQGTLVTVSS
VL: DVVMTQSPLSLPVTLGQPASISCRSSQSIVHSNANTYLEWFQQRPGQSPRLLIYKVSNRFSGVPDRFSGSGSGTDFTLKISRVEAEDLGVYYCFQGSQGPLTFGQGTKLEIK
notes: as for B1
Consider B13, for which the Relative koff turned out to be 0.1 in experiment [1] and 0.2 in the experiment with alpha-synuclein fibrils.

B14: hACI-7067-1101C8-Ab2_H5L2 (antibody, V domains shown)
VH: EVQLVESGGGLVQPGGSLKLSCAASGFSFNIYAMNWVRQAPGKGLEWVGRIRSKSNAYATYYAASVKGRFTISRDDSKNTLYLQMNNLKTEDTAVYYCTRVGLRFYAMDYWGQGTLVTVSS
VL: DVVMTQSPLSLPVTLGQPASISCRSSQSLVHSNANTYLEWYQQRPGQSPRLLIYKVSNRFSGVPDRFSGSGSGTDFTLKISRVEAEDLGVYYCFQGSQGPLTFGQGTKLEIK
notes: as for B1
In the case of B14, the values for the Relative koff (in experiment [1]; with alpha-synuclein fibrils) were 0.8 and 1.4, respectively.

B15: hACI-7067-1101C8-Ab2_H4L1 (antibody, V domains shown)
VH: EVQLVESGGGLVQPGGSLKLSCAASGFTFNIYAMNWVRQAPGKGLEWVGRIRSKSNAYATYYAASVKGRFTISRDDSKNTLYLQMNNLKTEDTAVYYCVRVGLRFYAMDYWGQGTLVTVSS
VL: DVVMTQSPLSLPVTLGQPASISCRSSQSIVHSNANTYLEWYQQRPGQSPRLLIYKVSNRFSGVPDRFSGSGSGTDFTLKISRVEAEDLGVYYCFQGSQGPLTFGQGTKLEIK
notes: as for B1
As to B15, the Relative koff was found to be 1.9 in experiment [1] and 0.5 with alpha-synuclein fibrils.

B16: hACI-7067-1101C8-Ab2_H1L1 (antibody, V domains shown)
VH: EVQLVESGGGLVQPGGSLKLSCAASGFSFNIYAMNWVRQAPGKGLEWVARIRSKSNAYATYYAASVKGRFTISRDDSKNTLYLQMNNLKTEDTAVYYCVRVGLRFYAMDYWGQGTLVTVSS
VL: DVVMTQSPLSLPVTLGQPASISCRSSQSIVHSNANTYLEWYQQRPGQSPRLLIYKVSNRFSGVPDRFSGSGSGTDFTLKISRVEAEDLGVYYCFQGSQGPLTFGQGTKLEIK
notes: as for B1
For the molecule B16, the Relative koff in experiment [1] was found to be 1.3; with alpha-synuclein fibrils it was 851.

B17: hACI-7067-1101C8-Ab2_H3L2 (antibody, V domains shown)
VH: EVQLVESGGGLVQPGGSLKLSCAASGFSFNIYAMNWVRQAPGKGLEWVGRIRSKSNAYATYYAASVKGRFTISRDDSKNTAYLQMNNLKTEDTAVYYCVRVGLRFYAMDYWGQGTLVTVSS
VL: DVVMTQSPLSLPVTLGQPASISCRSSQSLVHSNANTYLEWYQQRPGQSPRLLIYKVSNRFSGVPDRFSGSGSGTDFTLKISRVEAEDLGVYYCFQGSQGPLTFGQGTKLEIK
notes: as for B1
Turning to B17, the Relative koff worked out at 0.6 in experiment [1] and 1230 in the experiment with alpha-synuclein fibrils.

B18: hACI-7067-1101C8-Ab2_H1L3 (antibody, V domains shown)
VH: EVQLVESGGGLVQPGGSLKLSCAASGFSFNIYAMNWVRQAPGKGLEWVARIRSKSNAYATYYAASVKGRFTISRDDSKNTLYLQMNNLKTEDTAVYYCVRVGLRFYAMDYWGQGTLVTVSS
VL: DVVMTQSPLSLPVTLGQPASISCRSSQSIVHSNANTYLEWFQQRPGQSPRLLIYKVSNRFSGVPDRFSGSGSGTDFTLKISRVEAEDLGVYYCFQGSQGPLTFGQGTKLEIK
notes: as for B1
Take B18: the Relative koff amounted to 0.2 in experiment [1] and 0.3 with alpha-synuclein fibrils.

B19: hACI-7067-1101C8-Ab2_H4L2 (antibody, V domains shown)
VH: EVQLVESGGGLVQPGGSLKLSCAASGFTFNIYAMNWVRQAPGKGLEWVGRIRSKSNAYATYYAASVKGRFTISRDDSKNTLYLQMNNLKTEDTAVYYCVRVGLRFYAMDYWGQGTLVTVSS
VL: DVVMTQSPLSLPVTLGQPASISCRSSQSLVHSNANTYLEWYQQRPGQSPRLLIYKVSNRFSGVPDRFSGSGSGTDFTLKISRVEAEDLGVYYCFQGSQGPLTFGQGTKLEIK
notes: as for B1
With B19, the Relative koff amounted to 1.1 in experiment [1] and 1.6 with alpha-synuclein fibrils.
